Experimental data from the nanobody polyreactivity screen of Harvey et al. (2022).

assay: yeast display, Sf9 membrane polyspecificity reagent, FACS + sequencing; frameworks hold sequencing errors
How it was run: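 Nanobodies came from a synthetic yeast display library in Saccharomyces cerevisiae BJ5465, induced with galactose for 36–48 hours and stained for 1 hour at 4 °C with 10% biotinylated, detergent-solubilized Sf9 membrane reagent. Cells were enriched on streptavidin microbeads and then FACS-sorted, with low and high (top ~1%) gates set on anti-HA fluorescence for expression and streptavidin fluorescence for reagent binding. Each polyreactivity label reflects the gate a clone came from. Genes were amplified by colony PCR, sequenced by MiSeq 2 × 250 and filtered by CDR length.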

Sequence	polyreactivity (PSR sort gate)
QVQLVESGGGLVQAGGSLRLSCAASGSIFTGYAMGWYRQAPGKERELVAAISNSGTATYYADSVKGRFTISRDNAKNTVYLQMNSLKPEDSAVYYCNTVGHRWLSDDDYWGQGTQVTVSS	low polyreactivity
QVQLVESGGGLVQAGGSLRLSCAASGSIFTGYAMGWYRQAPGKERELVAAISRSSGSTYYADSVKGRFTISRDNAKNTVYLQMNSLIPEDTAVYYCNAYSKYRSGRLYWMGYWGQGTQVTVSS	low polyreactivity
QVQLVESGGGLVQAGGSLRLSCAASGSIFTGYAMGWYRQAPGKERELVAAISWSGGSTSYADSVKGRFTISLDKAKNDVYLQMNSLKPEDTAVYYCAAERKARTYGYWGQGTEVTVSS	high polyreactivity
QVQLVESGGGLVQAGGSLRLSCAASGSIFTHNAMGSYRQAPGKERELVAAISSGGSTNYADSVKGRFTISRDNAMNTVYLQMNSLKPDDTAVYYCAISIDGWYWRRRRYDYWGQGTQVTVSS	low polyreactivity
QVQLVESGGGLVQAGGSLRLSCAASGSIFTHNAMGWYRQAPGNERELVAAISSGGSTNYADSVKGRFTISRDNAKNTVYLQMNSLKPEDTAVYYCAKSIDGWYWRRRRYDYWGQGTQVTVSS	low polyreactivity
QVQLVESGGGLVQAGGSLRLSCAASGSIFTHYAMGWYRQAPGKERELVAAIARRGGSTYYADSVKGRFTISRDNAKNTVYLQMNSLKPEDTAVYYCAKSPDTAKEYDYWGQGTQVTVSS	high polyreactivity
QVQLVESGGGLVQAGGSLRLSCAASGSIFTINAMGWYRQAPGKERELVAAISFSGGRTYYADSVKGRFTISRDNAKNTVYLQMNSLKPEDTAVYYCAAPFYYYGVRFDYWGQGTQVTVSS	high polyreactivity
QVQLVESGGGLVQAGGSLRLSCAASGSIFTKYAMGWYRQAPGKERELVAAISQGGASTRYADSVKGRFTISRDNAKNTVYLQMNSLKPVDTADEYCAAKSRHFWMDYWGQGTQVTVSS	high polyreactivity
QVQLVESGGGLVQAGGSLRLSCAASGSIFTLYAMGRYRQAPGKERELVAAITWSGGSSYYADSVKGRFTISRDNAKNTVYLQMNSLKPEDTAVYYCAKDYLAGGPWEGLVEREYDYWGQGTQVTVSS	low polyreactivity
QVQLVESGGGLVQAGGSLRLSCAASGSIFTLYAMGWYRQAPGKDRELVATINWSGGSTSYADSGKGRFTISRDNAKNTVYLQMNSLKPEETAVYYCARLGTYTVVTYDYWGQGTQVTVSS	low polyreactivity
QVQLVESGGGLVQAGGSLRLSCAASGSIFTLYAMGWYRQAPGKERELVAAITSGGRTYYADSVKGRFTISRDNAKNTVYLQMKSLKPEDTAVYYCNAVSRSWDFEYWGQGTQVTVSS	high polyreactivity
QVQLVESGGGLVQAGGSLRLSCAASGSIFTPNTMGWYRQAPGKEREFVAAITFSGGSTYYADSVKGRFTISRDNAKNTVYLQMNSLKPEDTAVYYCAAVYPTYDWYTPAYYYWGQGTQVTVSS	low polyreactivity
QVQLVESGGGLVQAGGSLRLSCAASGSIFTPYAMGWSRQAPGKERELVAVISWRVDSTYYADSVKGRFTISRDNAKNTVYLQMNSLKPEDTAVYYCAAKSYLLAPFGSGNRWSRYDYWGQGTQVTVSS	high polyreactivity
QVQLVESGGGLVQAGGSLRLSCAASGSIFTPYAMGWYRQAPGKERELVAVISWRVDSTYYADSVKGRFTISRDNAKNTVYLQMNSLKPEDTAVYYCAAKSYLLAPFGSGNRWSRYDYWGQGTQVTVSS	high polyreactivity
QVQLVESGGGLVQAGGSLRLSCAASGSIFTPYAMGWYRQEPGKERELVAAISRSGGSTYYADSVKGRFTISRDNAKNTVYLQMNSLKPEDTAVYYCAVVVYDIYGYESDYWGQGTQVTVSS	low polyreactivity
QVQLVESGGGLVQAGGSLRLSCAASGSIFTPYTMVWYRQAPGKERELVAAIRPNSGSTYYADSVKGRFTISRDNAKNTVYLQLNSLKPEDTAVYYCNAQCYGPGGGYFWSYDYWGQGTQVTVSS	low polyreactivity
QVQLVESGGGLVQAGGSLRLSCAASGSIFTRNAMGWYRQAPGKERELVAAITSGGRTYYADSVKGRFTISRDNAKNTVYLQMNSLKPEDTAVYYCNAYAWGWYDYWGQGTQVTVSS	high polyreactivity
QVQLVESGGGLVQAGGSLRLSCAASGSIFTRNAMGWYRQAPGKERELVASISWRGGSTYYADSVKGRFTISRDNAKNTVYLQMNSLKPEDTAVYYCNRRAYRNGYGFRDGTWEYDYWGQGTQVTVSS	high polyreactivity
QVQLVESGGGLVQAGGSLRLSCAASGSIFTRNAMGWYRQAPGKERELVATIRKNGASTTYADSVKGRFTISRDNAKNTVYLQMNSLKPEDTAVYYCARDHHTKYNYWGQGTQVTVSS	low polyreactivity
QVQLVESGGGLVQAGGSLRLSCAASGSIFTRNAMGWYRQAPGKERELVATITSNDGSTNYADSVKGRFTISRDNAKNTVYLQMNSLKPEDTAVYYCNRSYGVYSEFDYWGQGTQVTVSS	low polyreactivity
QVQLVESGGGLVQAGGSLRLSCAASGSIFTRNTMGWYRQAPGKERELVAAITSSGGSTYYADSVKGRFTISRDTAKNTVYLQMNSLKPEDTAVYYCAADVGVYYYSFYYWGQGTQVTVSS	high polyreactivity
QVQLVESGGGLVQAGGSLRLSCAASGSIFTRYAMGWYRQAPGKERELVAAISYRGDRTYYADSVKGRFTISRDNAKNTVYLQMNSLKPEDTAVYYCAATVQYSPIYDYWGQGTQVTVSS	high polyreactivity

Sequence	polyreactivity (PSR sort gate)
QVQLVESGGGLVQAGGSLRLSCAASGSIFTRYAMGWYRQAPGKERELVAAITKSGSRTYYADSVKGRSTISRDNAKNTVYLQMNSLKPEDTAVYYCATLQGDSSSQYDYWGQGTQVTVSS	high polyreactivity
QVQLVESGGGLVQAGGSLRLSCAASGSIFTRYAMGWYRQAPGKERELVAVISVSGGRTYYADSVKGRFTISRDNAKNTVYLQMNSLKPEDTAVYYCAVGVLYAGYFYRYRYYYWGQGTQVTVSS	high polyreactivity
QVQLVESGGGLVQAGGSLRLSCAASGSIFTSYAVMGWYRQAPGKERELVAVITGGGITTYADSVKGRFTISRDNAKNTVYLQMNSLKPEDTAVYYCATDGWYHSEYDYWGQGTQVTVSS	low polyreactivity
QVQLVESGGGLVQAGGSLRLSCAASGSIFTSYGMGWYRQAPGKERELVAAITYSGDRTYYADSVKGRFTISRDNAKITVYFQMNSLIPEDTAVYYCNVAYVYGSFRRRPMGYWGQGTQVTVSS	high polyreactivity
QVQLVESGGGLVQAGGSLRLSCAASGSIFTTYTMGWYRQAPGKERELVAAITAGGGTTYYADSVKGRFTISRDNAKNTVYLQMNSLKPEDTAVYYCAAANSFYYIATGEYDYWGQGTQVTVSS	high polyreactivity
QVQLVESGGGLVQAGGSLRLSCAASGSIFTVNAMGWYRQAPGKEREFVAAITGGGTSTYYADSVKGRFTISRDNAKNTVYLQMNSLKPEDTAVYYCAATTYHYSPTYGYWGQGTQVTVSS	low polyreactivity
QVQLVESGGGLVQAGGSLRLSCAASGSIFTVNAMGWYRQAPGKERELVAAISSGGSTHYADSVKGRFTISRDNAKNTVYLQMNSLKPEDTAVYYCAAVYVPYYGYSTRYDYWGQGTQVTVSS	low polyreactivity
QVQLVESGGGLVQAGGSLRLSCAASGSIFTVNAMGWYRQAPGKERELVATITNGGGTYYADSVKGRFTISRDNAKNTVYLQMNSLKPEDTAVYYCAARTWGHYDYWGQGTQVTVSS	low polyreactivity
QVQLVESGGGLVQAGGSLRLSCAASGSIFTVNAMGWYRQARGKERELVAAISSGGSTHYADSVKGRFTISRDNAKNTVYLQMNSLKPEDTAVYYCARDRPGDYAGYDYWGQGTQVTVSS	low polyreactivity
QVQLVESGGGLVQAGGSLRLSCAASGSIFTVYAMGWYRQAPGKERELVAAISSSGGTTYYADSVKGRFTISRDNAKNTVYLQMTSLKPEDTAVYYCAAPTHSPYDYWGQGTQVTVSS	low polyreactivity
QVQLVESGGGLVQAGGSLRLSCAASGSIFTVYGMGWYRQAPGKERELVAAISRSGGSTYYADSVKGRFTISRDNAKNTVYLQMNSLKPEDTAVYYCNADLVYNTLIYSGGDEYDYWGQGTQVTVSS	high polyreactivity
QVQLVESGGGLVQAGGSLRLSCAASGSIFTWYAMGWSRPAPGKERELVAAITRGGSTYADSVKGRFTISRDNAKNTVYLQMNSLKPEDSAVYYCNAVYGVYDFNYWGQGTQVTVSS	low polyreactivity
QVQLVESGGGLVQAGGSLRLSCAASGSIFTWYAMGWYRQAPGKEREFVDSITGSGGSTYYADSVKGRFTISRDNAKNTVYLQMNSLKPEDTAVYYCAKGHVYSSYRYRLRSTAFGYWGQGTQVTVSS	high polyreactivity
QVQLVESGGGLVQAGGSLRLSCAASGSIFTYNAMGWYRPAPGKERELVAAINTSGSTNYADSVKGRFTISRDNAKNTVYLQMNSLKPEDTAVYYCAAGIVVTGYDYWGQGTQVTVSS	low polyreactivity
QVQLVESGGGLVQAGGSLRLSCAASGSIFTYNAMGWYRQAPGKERELVAAITRSGGRTYYADSVKGRFTISRDTAKNTVYLQMNSLKPEATAVYYCNTLRVGWGQGTQVTVSS	high polyreactivity
QVQLVESGGGLVQAGGSLRLSCAASGSIFTYNAMGWYRQAPGKERELVAVISWSGGSTYYADSVKGRFTISRDNAKNTVYLQMNSLKPEDTAVYYCNAYYYRPYGNKYGYWGQGTQVTVSS	high polyreactivity
QVQLVESGGGLVQAGGSLRLSCAASGSIFTYNVMGWYRQAPGKERELVASISWSGGRTYYADSVKGRFTISRDNAKNTVYLQMNSLKPEDTAVYYCNKVRPPVYFPNRDYWGQGTQVTVSS	low polyreactivity
QVQLVESGGGLVQAGGSLRLSCAASGSIFTYYAMGWYRPAPGKERELVATITRRGGRTYYADSVKGRFTISRDNAKNTVYLQMNSLKPEDTAVYYCATRIRTVAYNYWGQGTQVTVSS	high polyreactivity
QVQLVESGGGLVQAGGSLRLSCAASGSIFTYYAMGWYRQAPGKERELVADISKRGGSTYYADSVKGRFTISRDNAKNTVYLQMNSLKPEYTAVYYCATRARYTWRAFEYWGQGTQVTVSS	low polyreactivity
QVQLVESGGGLVQAGGSLRLSCAASGSIFVANAMGWYRQAPGKETELVAAISQDGGTKYYADSVKGRFTISRDNAKNTVYLQMNSLKPEDTAVYYSAAEYPSFPEDDEYDYWGQGTQVTVSS	low polyreactivity
QVQLVESGGGLVQAGGSLRLSCAASGSIFVAYAKGWYRPAPGKERELVAAISSSGGTTYYADSVKGRFTISRDNAKITVYLQMNSLKPEDSAVYYCAARDYKYYYWGQGTQVTVSS	high polyreactivity
